According to the supplement of paper PMC11865577:

How the values were obtained:
Assay in all cases: pull-down binding Z-score (relative to library population); higher = stronger binding
[1] = test system: TO-3-N3 (biotin conjugate); details: RNA library: Library-2
Method in brief: (§1)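 Biotin-conjugated small molecule (100 pmol) on streptavidin beads was incubated with 1 μg of heat-folded Cy5- or Cy3-end-labelled RNA library in phosphate/NaCl/KCl buffer at 25 °C for 60 min. Following three washes, RNA was eluted with hot SDS and hybridised at 55.5 °C for 20 h to a DNA barcode microarray. The binding value is a Z-score computed from the library mean and standard deviation, after subtraction of beads without compound and averaging of barcoded replicate probes with the highest and lowest excluded.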

TO-N3 (biotin conjugate) = details: RNA library: Library-2
Method in brief: as §1

[2] = test system: TO-3-N3-2 (biotin conjugate); details: RNA library: Library-2
Method in brief: as §1

[3] = test system: G-clamp-N3 (biotin conjugate); details: RNA library: Library-1 (pre-miRNA loops + repeats)
Method in brief: as §1

[4] = test system: TO-N3-2 (biotin conjugate); details: RNA library: Library-2
Method in brief: as §1

| Sequence | pull-down binding Z-score [1] | pull-down binding Z-score (TO-N3 (biotin conjugate)) | pull-down binding Z-score [2] | pull-down binding Z-score [3] | pull-down binding Z-score [4] |
| --- | --- | --- | --- | --- | --- |
| CAGAGUGGGCUCACCUCUCGCCCACACUG [hsa-mir-6760] | -0.556 | -0.637 | -0.336 | -0.917 | -0.38 |
| GCUUAUGUCAUGACCUUGGGCUACUCAGGCUGUCUGCACAAUGAGC [hsa-mir-575] | -0.544 | -0.0339 | -0.342 | -0.804 | 1.66 |
| GAUUUUUUAGAUUCUAAAGAAAC [hsa-mir-1255a] | -0.837 | -1.02 | -0.365 | -1.12 | -1.27 |
| CAUGCAGCAUGCUUGUCUG [hsa-mir-767] | -0.275 | -0.247 | -0.377 | -0.359 | 0.0549 |
| GUGAGCGCAGGUCUUUGGCAC [hsa-mir-4450] | 0.104 | 0.339 | 0.39 | 2.36 | 0.729 |
| UUCUCCUUGGGAAAAACAGAGAA [hsa-mir-605] | -0.446 | -0.65 | -0.016 | -0.311 | -0.414 |
| AUGUUCACUUGAUUAAUGGCGAAUAU [hsa-mir-1185-2_1185-1] | -0.629 | -0.89 | -0.39 | 0.337 | -0.673 |
| CCUCUCGGGAACUACAAGUCCCAGGGGG [hsa-mir-2861] | -0.694 | -0.794 | -0.409 | 0.879 | -0.455 |
| CGGGCUGAUUGCGCUAACAGUGGCCCC [hsa-mir-4783] | -0.256 | 0.248 | -0.117 | -0.491 | 1.12 |
| GCUUCUGCGUUAUCUGGAAGG [hsa-mir-4706] | -0.466 | -0.25 | -0.131 | -0.078 | 0.26 |
| UUUUCUGUCCUGUCCACACAGAAAA [hsa-mir-1537] | -0.957 | -1.27 | -0.517 | -1 | -0.902 |
| GAGUGAGGCCCAGUGGUCACCGCCGCCCUC [hsa-mir-4754] | 0.828 | 1.11 | 0.3 | -0.652 | 1.73 |
| UCCUGAGCUAGGAGGAUUAGGA [hsa-mir-5093] | -0.171 | -0.07 | -0.0611 | 1.05 | 0.417 |
| GUUUGGCAGGACAGUUUCCAAGC [hsa-mir-6779] | -0.587 | -0.451 | -0.323 | -0.893 | 0.15 |
| GGAGAGUAUGGUCACAGCAGCAUCCUCC [hsa-mir-6780a] | -0.0714 | -0.0981 | -0.326 | 0.186 | 0.36 |
| GGGGUAGAAGCCACCCG [hsa-mir-4466] | 0.149 | 0.492 | 0.0166 | 0.458 | 1.46 |
| UUGGCGUUAAGAUUCUAAAAUUAUCUCCAG [hsa-mir-16-1] | -0.825 | -0.952 | -0.307 | -1.03 | -0.642 |
| AGUUUGUGAUAAUGUUUGUCUAUAUAGUUAUGAAUG [hsa-mir-4307] | -0.811 | -0.633 | -0.174 | 0.397 | -0.531 |
| UGCUCUGAUGAAGACCCAUGUGGC [hsa-mir-621] | -0.162 | 0.589 | 0.285 | -0.6 | 1.51 |

| Sequence | pull-down binding Z-score [1] | pull-down binding Z-score (TO-N3 (biotin conjugate)) | pull-down binding Z-score [2] | pull-down binding Z-score [3] | pull-down binding Z-score [4] |
| --- | --- | --- | --- | --- | --- |
| UUUGCCAUUGAAAGUAAUGGCAAA [hsa-mir-548d-2] | -0.691 | -1.12 | -0.422 | 0.739 | -1.04 |
| AUCUCCUUUAGGAAAACCUUCUGUGGGGAGU [hsa-mir-1296] | -0.0517 | -0.275 | -0.226 | -0.272 | -0.641 |
| GCAGCCUUCUGCCUUUGGCUUUCUGAAGCGAGCUGA [hsa-mir-7158] | 0.327 | 0.769 | 0.292 | -0.699 | 1.09 |
| AUGCACCCAUAUUUUAAUAUCAAACUAUGACAAAUU [hsa-mir-3974] | -0.386 | -0.417 | -0.134 | -0.337 | -0.358 |
| CUGUUUGUUGUCUGAGAAAAAACA [hsa-mir-520g_520h] | -0.638 | -0.598 | -0.125 | 1.11 | -0.229 |
| GGAGGGUGAGCUUUCUGAAAACCCCUCC [hsa-mir-188] | 0.345 | 0.328 | 0.358 | 0.536 | -0.0757 |
| UGGCGGCGGCGAGGACACCGCCGCU [hsa-mir-4469] | 1.53 | 1.4 | 0.747 | 0.412 | 0.629 |
| AGUUUCUGGAAGUUCUGACAUUCCAGAAACU [hsa-mir-3199-1] | -0.846 | -1.1 | -0.409 | -0.18 | -0.95 |
| UGUGGCCUUUUUGCCUUUUCUAAAGGCCACAU [hsa-mir-1250] | -0.234 | -0.489 | -0.241 | 0.00873 | -0.551 |
| AGAAAUCAAGCUAUUUGCUAAAAGUUCU [hsa-mir-6844] | -0.362 | -0.316 | 0.246 | -0.369 | -0.0563 |
| CUUACUGCCCGGGCCGCCCUCAGUAA [hsa-mir-212] | 0.545 | 1.17 | 0.033 | -1.81 | 1.45 |
| CCGUAUAUAUAUAUAUAUAUAUAUAGAUAUCUCCAUAUAUAUGG [hsa-mir-620] | -0.865 | -1.16 | -0.53 | 1.15 | -0.872 |
| UUUGCCGUUGCUUUUAAUGGUAAA [hsa-mir-548as] | -0.291 | -0.571 | -0.381 | -0.134 | -1.31 |
| UGUAUGUGUAAAUACAUAUCCACACA [hsa-mir-4789] | 0.0268 | -0.285 | -0.00888 | -1.45 | -0.589 |
| GCAUGCCC [hsa-mir-1178] | 0.196 | 0.287 | 0.000996 | -0.547 | 0.552 |
| CACGCAUUUGCUUUACUUGCAAUGAUUAUA [hsa-mir-300] | 0.485 | 0.583 | 0.215 | -0.374 | 0.472 |
| UUUCUGUUGUCUAAAAGAAGAGAAA [hsa-mir-518a-2] | 0.159 | 0.171 | -0.0883 | 0.832 | -0.273 |
| UUUUCUGGGA [hsa-mir-4456] | -0.426 | -0.484 | -0.103 | -0.606 | -0.251 |
| UAAGAGUAAUAGCUCUCUAGGUUAUUAUGAAUA [hsa-mir-5692c-1] | -0.283 | -0.449 | 0.109 | -0.762 | -0.712 |

| Sequence | pull-down binding Z-score [1] | pull-down binding Z-score (TO-N3 (biotin conjugate)) | pull-down binding Z-score [2] | pull-down binding Z-score [3] | pull-down binding Z-score [4] |
| --- | --- | --- | --- | --- | --- |
| CCCUUGUCUUCCCAGAG [hsa-mir-4739] | -0.28 | -0.358 | -0.41 | -1.22 | -0.0951 |
| UAGAGUAGGAGAGCCCACUGA [hsa-mir-6846] | 0.712 | 1.28 | 0.147 | 0.203 | 1.21 |
| CACCUCCCGGCCCGGAGCUG [hsa-mir-4734] | -0.243 | -0.0704 | -0.473 | 0.0744 | 0.527 |
| CAGAGGGGCUGGCAGUACUGCUCUG [hsa-mir-4649] | 0.999 | 1.08 | 0.258 | 2.75 | 1.22 |
| GCUGGAGUAAGGGCACGCCCGGGGCUGC [hsa-mir-4758] | 0.802 | 1.51 | 0.383 | 1.11 | 1.79 |
| AAGAGGUAAGAAGAAGUGAAGCCCUCUU [hsa-mir-4778] | -0.393 | -0.292 | 0.35 | -0.836 | 0.281 |
| GACAUGCUCUGACUCCCCUGAUGUC [hsa-mir-6852] | -0.0796 | 0.286 | 0.244 | 0.588 | 1.18 |
| GCAGCUGGAAUUCAAGCCCUGCUGC [hsa-mir-6882] | -0.477 | -0.475 | -0.319 | -0.0183 | 0.0816 |
| CAUGUAUGUGUAUAUACAUAUAUAUG [hsa-mir-297] | 0.635 | 0.218 | -0.125 | 1.71 | -0.648 |
| GCCAGAUGCUGAGCGAUGGC [hsa-mir-4730] | -0.32 | -0.217 | -0.12 | 0.503 | 0.603 |
| UUGCUCUUUGGUGGAGAUA [hsa-mir-6074] | 0.509 | 0.505 | -0.00756 | 0.646 | 0.241 |
| CCAUGGGGGCCUUGCUGUGU [hsa-mir-6808] | 1.05 | 1.28 | 0.335 | 1.56 | 1.04 |
| GUUUUUUAAGAGGAAGGGAGACCUAAGCUAGCA [hsa-mir-4481] | 0.205 | 0.507 | 0.475 | 0.269 | 0.747 |
| UGAAGCCCCGAGAUGCCUCACGUCUUCA [hsa-mir-6802] | 0.00057 | 0.243 | -0.123 | -1.85 | 0.573 |
| CAGCAGCAGCAGCAGCAGCAGCAGCAGCAGCAGCAGCAGCAGCAGCAG [r(CAG)16] | 0.922 | 1.6 | -0.0193 | 1.2 | 1.29 |
| CUCAGGACAGCGGGUGUCAGCUUGCCUGAC [hsa-mir-6859-1_6859-3_6859-2_6859-4] | 0.665 | 1.12 | 0.241 | -0.377 | 1.4 |
| AGCGCGAAAGU [hsa-mir-1539] | -0.0926 | 0.054 | 0.0743 | 0.0302 | 0.55 |
| AACAGCUUUGCGAAGUGUUGUU [hsa-mir-4425] | 0.104 | -0.113 | -0.137 | -0.651 | -0.553 |
| GAGACGCUUUUAAAGUCUC [hsa-mir-3926-2] | -0.631 | -0.855 | -0.552 | 0.131 | -1.22 |
